Source: the supplement of paper PMC9732359
± gives the uncertainty stated by the source.

Test: protein stability index of a GFP-peptide fusion (yeast GPS) (PSI 1-4); higher = more stable; sorted into four equal gates, so the index is relative within each strain
Procedure, shortened: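 Tiled yeast protein peptides of 17 residues were each joined downstream of GFP, on plasmids that also express Cherry. The pooled library was maintained in yeast, and mid-log cultures in leucine-free medium were sorted into four equal gates on the GFP/Cherry ratio. Plasmids from every gate were amplified by PCR and sequenced on Illumina, with barcodes linking reads to strains. The protein stability index of a peptide is its gate-number-weighted read frequency summed over the gates.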

Sequence | protein stability index (doa10∆) | protein stability index (pdr5∆) | protein stability index (san1∆) | protein stability index (ubr1∆)
SPFGGSSHAKGIVLEKL [RPS23A] | 3.19 ± 0.096 | 3.14 ± 0.074 | 3.12 ± 0.067 | 3.17 ± 0.063
ILPQQSKLKLKNLLRKN [ECM29] | 2.39 ± 0.089 | 1.79 ± 0.051 | 2.01 ± 0.07 | 2.25 ± 0.074
MMVSYPKIDEDDTWYNL [AAR2] | 3.29 ± 0.063 | 3.34 ± 0.06 | 3.25 ± 0.048 | 3.35 ± 0.045
LKQHNQNNLPPNFFLTL [BRR2] | 2.81 ± 0.064 | 3.07 ± 0.069 | 2.84 ± 0.069 | 2.94 ± 0.071
WLWPLCRGELKADIGKP [CDC53] | 2.11 ± 0.078 | 2.06 ± 0.062 | 1.98 ± 0.089 | 2.43 ± 0.09
YNHNDGGDGRDYKGAKL [RRI1] | 2.57 ± 0.13 | 3.2 ± 0.088 | 3.14 ± 0.078 | 2.96 ± 0.092
NSIKNVPPILIILPLDN [SSN2] | 2.01 ± 0.21 | 1.61 ± 0.11 |  | 1.82 ± 0.068
SEYKVAFPHLYNSRPRS [PRP8] | 2.91 ± 0.071 | 2.66 ± 0.072 | 2.85 ± 0.086 | 2.77 ± 0.06
PSCVYNLIGVITHQGAN [UBP6] | 2.64 ± 0.14 | 2.9 ± 0.13 | 2.99 ± 0.13 | 2.48 ± 0.18
LFLNNFVSRIPIMFQDF [IRR1] | 1.97 ± 0.057 | 2.04 ± 0.048 | 1.7 ± 0.067 | 1.85 ± 0.033
IEHPMTSAIEVLVGSCA [RPN1] | 1.94 ± 0.043 | 1.81 ± 0.042 | 2.14 ± 0.057 | 1.82 ± 0.046
RMPIMLRSNKCILYDAD [RET1] | 1.23 ± 0.15 | 1.41 ± 0.11 | 1.25 ± 0.25 | 1.77 ± 0.095
EALLRSLLDAEEERRKK [SNF2] | 2.87 ± 0.15 | 2.62 ± 0.094 | 2.27 ± 0.17 | 
QRVRNMRELGLIQSTEF [YOR098C/NUP1] | 2.78 ± 0.12 | 2.03 ± 0.1 | 2.84 ± 0.26 | 2.22 ± 0.12
KLQSQSLHTKNVFGTLQ [YLR018C/POM34] | 2.87 ± 0.12 | 2.82 ± 0.12 | 2.29 ± 0.26 | 2.94 ± 0.11
LGLLTPEVVELCQKSPV [FAS2] | 2.28 ± 0.071 | 2.73 ± 0.066 | 2.11 ± 0.12 | 2.93 ± 0.081
AKEELNGLKDQLNEERS [YIL149C/MLP2] | 3.3 ± 0.14 | 3.42 ± 0.17 | 3.19 ± 0.075 | 3.41 ± 0.15
KTADVKRQYVKQFLTKD [RPL20A] | 2.94 ± 0.087 | 2.92 ± 0.055 | 2.2 ± 0.07 | 2.6 ± 0.048
LALQRGATVFVNHLLLF [DPB4] | 1.42 ± 0.046 | 1.26 ± 0.036 | 1.25 ± 0.083 | 1.34 ± 0.039
ATDISGELRDYIEDFLL [YJR042W/NUP85] | 3.31 ± 0.1 | 3.31 ± 0.081 | 3.22 ± 0.056 | 3.3 ± 0.041
LCDLFVNGSITDQLIQN [NUT1] |  | 2.11 ± 0.22 | 1.76 ± 0.21 | 3.44 ± 0.29
WQQVTALAQQKLLTPQD [GAL11] | 2.29 ± 0.058 | 2.38 ± 0.068 | 2.18 ± 0.085 | 2.45 ± 0.06
TGMSSMSPFLRKVVKPS [SRB4] | 2.76 ± 0.075 | 2.76 ± 0.088 | 1.97 ± 0.12 | 2.48 ± 0.049
MLGIRSSVKTCFKPMSL [RIP1] | 2.9 ± 0.074 | 3.05 ± 0.079 | 2.83 ± 0.057 | 2.9 ± 0.052
METRINILLRERDSYKL [YIL149C/MLP2] | 1.96 ± 0.27 | 1.59 ± 0.11 | 1.2 ± 0.27 | 2.3 ± 0.15
LSRNGKPVMEVTSSFFY [FAS1] | 3.04 ± 0.077 | 2.99 ± 0.089 | 2.79 ± 0.086 | 2.6 ± 0.073
IPVYCFSHPAHQQRMSR [YCG1] | 1.88 ± 0.037 | 2.04 ± 0.044 | 1.93 ± 0.046 | 2.04 ± 0.037

Sequence | protein stability index (doa10∆) | protein stability index (pdr5∆) | protein stability index (san1∆) | protein stability index (ubr1∆)
ELKPVSLDNKTLDDLVT [YJL041W/NSP1] | 3.12 ± 0.057 | 3.04 ± 0.063 | 3.09 ± 0.067 | 3.19 ± 0.042
QVYDLLKRFPKMSVTCN [BRR2] |  | 1.09 ± 0.13 |  | 
DPDKLKPNDLVGVNKDS [RPT5] | 3.18 ± 0.11 | 3.32 ± 0.13 | 3.34 ± 0.055 | 3.41 ± 0.098
VSNLMGRNIGHPIIQDK [RPB3] | 3.42 ± 0.079 | 3.43 ± 0.072 | 3.17 ± 0.053 | 3.22 ± 0.084
YTYHSTNKDNKAELIKP [ARP9] | 2.74 ± 0.065 | 2.69 ± 0.053 | 3.06 ± 0.044 | 2.98 ± 0.063
IYNGKAFNQVEIRPEML [RPS15] | 2.9 ± 0.12 | 3.04 ± 0.18 | 3.39 ± 0.11 | 3.26 ± 0.14
SPEEQRSLLQEAIETCK [GAL11] | 1.88 ± 0.099 | 2.97 ± 0.13 | 2.63 ± 0.18 | 2.88 ± 0.069
ERLQLLEDVVGAKSFEV [SMC3] | 3.14 ± 0.21 |  |  | 
KKEANLFPEQQNKEIKA [RPL6A] | 3.38 ± 0.12 | 3.43 ± 0.088 | 3.21 ± 0.076 | 3.3 ± 0.093
DLSTLVHSSSPSTSSNM [GAL11] | 2.77 ± 0.066 | 2.91 ± 0.069 | 2.71 ± 0.082 | 2.78 ± 0.039
GGRMFAPTKTWRKWNVK [RPL4A] | 2.87 ± 0.12 | 2.88 ± 0.11 | 3.07 ± 0.065 | 2.16 ± 0.056
ILTSLMRSKLEKLTLVT [CSN9] | 2.42 ± 0.081 | 3.03 ± 0.064 | 2.87 ± 0.06 | 2.67 ± 0.059
KYLLTQRVFKPVDITMM [PRP8] | 2.98 ± 0.081 | 2.99 ± 0.11 | 3.02 ± 0.079 | 2.31 ± 0.1
EQKWLIYDKKDHKYVCT [SRB8] | 2.64 ± 0.29 | 2.33 ± 0.17 |  | 3.23 ± 0.22
VVSTTAVIESVVNQPTG [FAS1] | 2.06 ± 0.078 | 1.82 ± 0.087 | 1.99 ± 0.11 | 2.1 ± 0.079
TLLSPKDNGMLIIDGQI [RPO21] | 2.59 ± 0.076 | 2.29 ± 0.078 | 2.81 ± 0.074 | 1.78 ± 0.058
MENTLGEGSTVNASVDV [SWI3] |  |  |  | 3.54 ± 0.21
PLILTPPQLANQQQPPQ [SNF11] | 1.53 ± 0.066 | 1.93 ± 0.071 | 2.04 ± 0.093 | 2.15 ± 0.069
KELNEKIQKLEEDDEGE [RPN7] | 1.2 ± 0.11 | 1.61 ± 0.12 | 1.25 ± 0.15 | 1.06 ± 0.08
YNRYRDLMISCLMNQET [MTR3] | 2.44 ± 0.062 | 2.56 ± 0.063 | 2.31 ± 0.084 | 2.5 ± 0.062
LSLTLNTHYHADYRLIL [SNF2] | 2.83 ± 0.077 | 2.98 ± 0.08 | 2.75 ± 0.1 | 2.65 ± 0.073
VLGNSRGVDAGKGNTFE [RPN14] | 2.73 ± 0.25 | 3.01 ± 0.17 | 3.66 ± 0.11 | 3.3 ± 0.12
SFSLTTFSPSGKLGQID [PRE8] | 3 ± 0.14 | 2.67 ± 0.1 | 3.01 ± 0.074 | 3.08 ± 0.073
KERTKSLEHELKRSTEL [YIL149C/MLP2] | 3.04 ± 0.15 | 3.36 ± 0.28 | 2.47 ± 0.12 | 3.12 ± 0.094
NASDALKGRVVEVCLAD [RPS1B] | 3.34 ± 0.069 | 3.33 ± 0.057 | 3.12 ± 0.051 | 3.03 ± 0.054
SYLISHKDSFYDRATLT [RPO31] | 2.43 ± 0.073 | 2.6 ± 0.067 | 2.21 ± 0.065 | 2.35 ± 0.072
